Results published in patent US20240018502A1.
Residue numbers refer to the chain shown, from its start. Names and notes keep the numbering of the source. Blank lines part the entries; values can stand above or below the binder they belong to.

Target: plasma purified human complement protein C3 (human) (UniProt P01024)
Assay: cell-based or functional assay

Sequence of plasma purified human complement protein C3 (human) (P01024 23-667, chain 1 of 2): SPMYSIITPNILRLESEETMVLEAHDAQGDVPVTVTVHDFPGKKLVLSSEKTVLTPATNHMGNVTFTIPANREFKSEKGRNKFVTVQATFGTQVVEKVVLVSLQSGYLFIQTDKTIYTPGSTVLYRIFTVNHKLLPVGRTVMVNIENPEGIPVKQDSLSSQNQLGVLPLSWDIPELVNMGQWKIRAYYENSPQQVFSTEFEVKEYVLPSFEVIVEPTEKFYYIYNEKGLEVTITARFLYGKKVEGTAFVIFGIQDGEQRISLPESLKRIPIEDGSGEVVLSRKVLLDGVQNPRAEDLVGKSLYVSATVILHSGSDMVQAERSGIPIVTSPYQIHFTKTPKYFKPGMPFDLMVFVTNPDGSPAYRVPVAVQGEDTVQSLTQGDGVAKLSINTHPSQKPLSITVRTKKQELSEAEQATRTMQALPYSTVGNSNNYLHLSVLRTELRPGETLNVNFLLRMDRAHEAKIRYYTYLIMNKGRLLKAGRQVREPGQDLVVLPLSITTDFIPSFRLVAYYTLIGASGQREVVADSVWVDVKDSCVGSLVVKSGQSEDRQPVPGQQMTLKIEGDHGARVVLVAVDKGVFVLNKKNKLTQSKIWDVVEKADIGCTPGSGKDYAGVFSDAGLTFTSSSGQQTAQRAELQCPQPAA
Sequence of plasma purified human complement protein C3 (human) (P01024 672-1663, chain 2 of 2): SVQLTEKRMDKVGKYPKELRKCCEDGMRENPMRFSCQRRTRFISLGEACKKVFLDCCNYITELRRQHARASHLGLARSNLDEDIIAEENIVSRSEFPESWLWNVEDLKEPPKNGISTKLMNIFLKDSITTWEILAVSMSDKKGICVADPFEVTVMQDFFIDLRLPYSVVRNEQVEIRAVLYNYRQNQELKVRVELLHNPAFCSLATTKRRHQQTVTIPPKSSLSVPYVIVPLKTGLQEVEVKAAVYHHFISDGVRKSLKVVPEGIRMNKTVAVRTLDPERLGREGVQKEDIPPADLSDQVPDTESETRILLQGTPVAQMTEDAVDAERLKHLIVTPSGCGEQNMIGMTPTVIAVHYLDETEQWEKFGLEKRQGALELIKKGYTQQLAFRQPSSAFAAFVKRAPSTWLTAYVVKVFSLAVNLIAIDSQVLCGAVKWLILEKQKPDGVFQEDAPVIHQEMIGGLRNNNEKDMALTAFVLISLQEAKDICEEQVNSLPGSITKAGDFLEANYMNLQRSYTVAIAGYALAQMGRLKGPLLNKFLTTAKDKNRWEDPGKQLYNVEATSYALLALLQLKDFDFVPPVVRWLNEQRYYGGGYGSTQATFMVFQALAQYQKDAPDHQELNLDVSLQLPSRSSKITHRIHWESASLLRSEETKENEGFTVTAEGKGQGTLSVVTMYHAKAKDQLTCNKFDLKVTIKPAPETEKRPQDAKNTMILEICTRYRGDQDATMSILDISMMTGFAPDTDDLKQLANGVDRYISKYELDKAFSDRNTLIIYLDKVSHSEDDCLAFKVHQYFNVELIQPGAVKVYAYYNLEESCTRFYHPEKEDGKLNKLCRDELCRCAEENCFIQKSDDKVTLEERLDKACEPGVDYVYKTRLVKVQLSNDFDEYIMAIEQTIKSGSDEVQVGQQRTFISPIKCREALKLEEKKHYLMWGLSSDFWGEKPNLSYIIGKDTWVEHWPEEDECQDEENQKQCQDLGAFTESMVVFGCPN

B1: MTSP-1 Q38H/I41A/F97T/ins97aE/T98G/F99L/C122S/Q175L/Q192G (enzyme)
chain: VVGGTDADEGEWPWQVSLHALGHGHACGASLISPNWLVSAAHCYIDDRGFRYSDPTQWTAFLGLHDQSQRSAPGVQERRLKRIISHPFFNDTEGLDYDIALLELEKPAEYSSMVRPISLPDASHVFPAGKAIWVTGWGHTQYGGTGALILQKGEIRVINQTTCENLLPQLITPRMMCVGFLSGGVDSCGGDSGGPLSSVEADGRIFQAGVVSWGDGCAQRNKPGVYTRLPLFRDWIKENTGV
EC50 of hC3 cleavage: 3.9 nM

B2: MTSP-1 Q38L/I41T/D60bV/F60eH/Y60gL/ins97aE/F97T/T98G/F99L/C122S/Q175L/Q192S (enzyme)
chain: B1 chain with H23L, A26T, D47V, F50H, Y52L, G189S
EC50 of hC3 cleavage: 13.1 nM

B4: MTSP-1 Q38T/I41S/D60bV/F60eR/ins97aV/F97D/T98P/F99L/C122S/G151N/Q175R/Q192V (enzyme)
chain: B1 chain with H23T, A26S, D47V, F50R, T92D, E93V, G94P, G146N, L170R, G189V
EC50 of hC3 cleavage: 15.7 nM

B5: MTSP-1 Q38H/I41A/F60eH/Y60gW/ins97aE/F97T/T98G/F99L/C122S/Q175L/Q192A (enzyme)
chain: B1 chain with F50H, Y52W, G189A
EC50 of hC3 cleavage: 3.09 nM

B6: MTSP-1 Q38H/I41A/D60bT/F60eR/F97T/ins97aE/T98G/F99L/C122S/Q175L/Q192V (enzyme)
chain: B1 chain with D47T, F50R, G189V
EC50 of hC3 cleavage: 6.54 nM

B9: MTSP-1 Q38H/I41A/D60bV/F60eH/ins97aE/F97T/T98G/F99L/C122S/Q175L/Q192D (enzyme)
chain: B1 chain with D47V, F50H, G189D
EC50 of hC3 cleavage: 5.31 nM

B10: MTSP-1 D60bY/F97T/ins97aE/T98G/F99L/C122S/Q175L/Q192G (enzyme)
chain: B1 chain with H23Q, A26I, D47Y
EC50 of hC3 cleavage: 4.1 nM

B12: MTSP-1 Q38F/I41A/D60bT/F60eG/Y60gW/ins97aE/F97T/T98G/F99L/C122S/Q175L/Q192E (enzyme)
chain: B1 chain with H23F, D47T, F50G, Y52W, G189E
EC50 of hC3 cleavage: 1.25 nM

B13: MTSP-1 ins97aL/F97Q/T98G/F99L/C122S/Q175M/Q192S/D217I (enzyme)
chain: B1 chain with H23Q, A26I, T92Q, E93L, L170M, G189S, D215I
EC50 of hC3 cleavage: 6.67 nM

B14: MTSP-1 Q38Y/I41S/D60bR/F60eE/Y60gF/ins97aE/F97T/T98G/F99L/C122S/Q175L/Q192V (enzyme)
chain: B1 chain with H23Y, A26S, D47R, F50E, Y52F, G189V
EC50 of hC3 cleavage: 25 nM

B15: MTSP-1 Q38R/I41T/D60bH/ins97aE/F97T/T98G/F99L/C122S/Q175L/Q192G (enzyme)
chain: B1 chain with H23R, A26T, D47H
EC50 of hC3 cleavage: 26.2 nM

B16: MTSP-1 Q38H/I41A/D60bT/F60eK/ins97aE/F97T/T98G/F99L/C122S/Q175L/Q192E (enzyme)
chain: B1 chain with D47T, F50K, G189E
EC50 of hC3 cleavage: 14.6 nM

B17: MTSP-1 Q38L/I41T/D60bA/F60eL/ins97aV/F97D/T98P/F99L/C122S/G151H/Q175M/Q192T (enzyme)
chain: B1 chain with H23L, A26T, D47A, F50L, T92D, E93V, G94P, G146H, L170M, G189T
EC50 of hC3 cleavage: 20.2 nM

B18: MTSP-1 Q38T/I41S/D60bG/F60eM/ins97aV/F97D/T98P/F99L/C122S/G151N/Q175S/Q192S (enzyme)
chain: B1 chain with H23T, A26S, D47G, F50M, T92D, E93V, G94P, G146N, L170S, G189S
EC50 of hC3 cleavage: 28.8 nM

B22: MTSP-1 Q38H/I41S/D60bT/F60eS/Y60gW/F97D/ins97aV/T98P/F99L/C122S/G151H/Q175A/Q192D (enzyme)
chain: B1 chain with A26S, D47T, F50S, Y52W, T92D, E93V, G94P, G146H, L170A, G189D
EC50 of hC3 cleavage: 22.6 nM

B23: MTSP-1 Q38V/I41S/D60bT/F60eT/F97D/ins97aV/T98P/F99L/C122S/G151N/Q175H/Q192S (enzyme)
chain: B1 chain with H23V, A26S, D47T, F50T, T92D, E93V, G94P, G146N, L170H, G189S
EC50 of hC3 cleavage: 18.5 nM

B25: MTSP-1 Q38Y/I41A/D60bL/F60eQ/ins97aV/F97D/T98P/F99L/C122S/G151N/Q175M/Q192A (enzyme)
chain: B1 chain with H23Y, D47L, F50Q, T92D, E93V, G94P, G146N, L170M, G189A
EC50 of hC3 cleavage: 1.53 nM

B27: MTSP-1 ins97aA/F97G/T98L/C122S/Q175M/Q192A/D217I/K224R (enzyme)
chain: B1 chain with H23Q, A26I, T92G, E93A, G94L, L95F, L170M, G189A, D215I, K222R
EC50 of hC3 cleavage: 0.866 nM

Next, values leading:

EC50 of hC3 cleavage: 32.7 nM
B3: MTSP-1 Q38E/I41S/D60bT/F60eR/F97T/ins97aE/T98G/F99L/C122S/Q175L/Q192V (enzyme)
chain: B1 chain with H23E, A26S, D47T, F50R, G189V

EC50 of hC3 cleavage: 3.1 nM
B7: MTSP-1 I41T/D60bW/F60eH/F97D/ins97aV/T98P/F99L/C122S/G151N/Q175L/Q192G (enzyme)
chain: B1 chain with H23Q, A26T, D47W, F50H, T92D, E93V, G94P, G146N

EC50 of hC3 cleavage: 12.1 nM
B8: MTSP-1 Q38E/I41S/D60bV/F60eK/Y60gW/F97T/ins97aE/T98G/F99L/C122S/G151N/Q175L/Q192D (enzyme)
chain: B1 chain with H23E, A26S, D47V, F50K, Y52W, G146N, G189D

EC50 of hC3 cleavage: 37.8 nM
B11: MTSP-1 Q38K/I41T/ins97aE/F97T/T98G/F99L/C122S/Q175L/Q192A (enzyme)
chain: B1 chain with H23K, A26T, G189A

EC50 of hC3 cleavage: 2.91 nM
B19: MTSP-1 Q38H/I41A/D60bV/F60eI/Y60gW/F97T/ins97aE/T98G/F99L/C122S/G151N/Q175L/Q192D (enzyme)
chain: B1 chain with D47V, F50I, Y52W, G146N, G189D

EC50 of hC3 cleavage: 15.4 nM
B20: MTSP-1 Q38H/I41S/D60bT/F60eR/ins97aE/F97T/T98G/F99L/C122S/Q175L/Q192E (enzyme)
chain: B1 chain with A26S, D47T, F50R, G189E

EC50 of hC3 cleavage: 22.3 nM
B21: MTSP-1 Q38H/I41A/D60bK/F60eK/Y60gW/F97T/ins97aE/T98G/F99L/C122S/Q175L/Q192D (enzyme)
chain: B1 chain with D47K, F50K, Y52W, G189D

EC50 of hC3 cleavage: 1.57 nM
B24: MTSP-1 Q38H/I41A/D60bV/F60eA/Y60gW/F97T/ins97aE/T98G/F99L/C122S/Q175L/Q192V (enzyme)
chain: B1 chain with D47V, F50A, Y52W, G189V

EC50 of hC3 cleavage: 23.7 nM
B26: MTSP-1 Q38L/I41T/D60bR/F60eL/Y60gM/F97T/ins97aE/T98G/F99L/C122S/G151N/Q175L/Q192G (enzyme)
chain: B1 chain with H23L, A26T, D47R, F50L, Y52M, G146N
